Earlier results on two substances are cited in publication PMC4370575.

One data set addresses Mms2 (Homo sapiens) (UniProt Q15819).
For a further data set, the target named is UbcH5c~Ub (Homo sapiens) (UniProt P61077).

Chain of UniProt Q15819 (Q15819 2-145): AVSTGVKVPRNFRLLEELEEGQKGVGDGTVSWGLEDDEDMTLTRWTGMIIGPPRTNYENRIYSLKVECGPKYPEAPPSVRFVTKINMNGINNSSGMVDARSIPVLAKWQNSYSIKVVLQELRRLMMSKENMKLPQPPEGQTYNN

In the case of Ubc13 (from UniProt P61088), in the data set with Mms2 (Homo sapiens), the Kd (usually the constant that tells how readily two partners part at equilibrium) is 2 µM.

For the substance UbcH5c~Ub (from UniProt P61077), the Kd with UbcH5c~Ub (Homo sapiens) was 25 µM.
